Measurements as given in the supplement of paper PMC10567573.

B1: CDC25B (parent)
chain: FVDILESDLKDDDAVPPGMESLIS

Variants of: B1
Assay: protein stability index of a GFP-peptide fusion (GPS, HEK-293T) (PSI 1-6); higher = more stable
Settings: c terminus: a fixed tail appended
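Further: lentivirally expressed fusions sorted by FACS into six bins by GFP to DsRed ratio, PSI derived from sequencing read proportions per bin multiplied by bin number.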

Compared with FVDILESDLKDDDHVPPGMESLIS, FVDILESDLKDDDTVPPGMESLIS is higher in protein stability index: 2.75 for the first, 3.61 for the second.

FVDILESDLKDDDWVPPGMESLIS and FVDILESDLKDDDIVPPGMESLIS are the same in protein stability index: 2.65 for the first, 2.65 for the second.

Going from FVDILESDLKDDDLVPPGMESLIS to FVDILESDLKDDDGVPPGMESLIS, the protein stability index falls from 2.8 to 2.53.

Going from FVDILESDLKDDDNVPPGMESLIS to FVDILESDLKDDDQVPPGMESLIS, the protein stability index falls from 3.29 to 2.33.

First: FVDILESDLKDDDFVPPGMESLIS
Second: FVDILESDLKDDDMVPPGMESLIS
The protein stability index of the first is lower: 2.49 for the first, 3 for the second.

Compared with FVDILESDLKDDDVVPPGMESLIS, FVDILESDLKDDDAVPPGMESDIS is higher in protein stability index: 3.15 for the first, 3.67 for the second.

Compared with FVDILESDLKDDDAVPPGMESNIS, FVDILESDLKDDDAVPPGMESMIS is higher in protein stability index: 2.71 for the first, 3.1 for the second.

First: FVDILESDLKDDDAVPPGMESHIS
Second: FVDILESDLKDDDAVPPGMESWIS
The protein stability index of the first is higher: 3.52 for the first, 2.43 for the second.

Compared with FVDILESDLKDDDAVPPGMESEIS, FVDILESDLKDDDAVPPGMESYIS is lower in protein stability index: 3.92 for the first, 2.47 for the second.

Going from FVDILESDLKDDDAVPPGMESPIS to FVDILESDLKDDDAVPPGMESTIS, the protein stability index rises from 3.36 to 3.65.

Going from FVDILESDLKDDDAVPPGMESRIS to FVDILESDLKDDDAVPPGMESKIS, the protein stability index rises from 2.66 to 2.99.

First: FVDILESDLKDDDAVPPGMESCIS
Second: FVDILESDLKDDDAVPPGMESGIS
The protein stability index of the first is lower: 3.15 for the first, 3.21 for the second.

First: FVDILESDLKDDDAVPPGMESFIS
Second: FVDILESDLKDDDAVPPGMESAIS
The protein stability index of the first is lower: 2.63 for the first, 3.37 for the second.

Compared with FVDILESDLKDDDAVPPGMESSIS, FVDILESDLKDDDAVPPGMESIIS is lower in protein stability index: 3.66 for the first, 2.77 for the second.

Going from FVDILESDLKDDDAVPPGMESQIS to FVDILESDLKDDDAVPPGMESVIS, the protein stability index falls from 3.32 to 3.19.

First: FVDILESDLKDDRAVPPGMESLIS
Second: FVDILESDLKDDVAVPPGMESLIS
The protein stability index of the first is lower: 2.1 for the first, 2.39 for the second.

Going from FVDILESDLKDDWAVPPGMESLIS to FVDILESDLKDDYAVPPGMESLIS, the protein stability index falls from 2.62 to 2.11.

First: FVDILESDLKDDSAVPPGMESLIS
Second: FVDILESDLKDDQAVPPGMESLIS
The protein stability index of the first is lower: 2.63 for the first, 2.71 for the second.

Going from FVDILESDLKDDTAVPPGMESLIS to FVDILESDLKDDDAVPPGMISLIS, the protein stability index falls from 2.75 to 2.31.

Compared with FVDILESDLKDDDAVPPGMFSLIS, FVDILESDLKDDDAVPPGMLSLIS is higher in protein stability index: 1.79 for the first, 2.2 for the second.

Compared with FVDILESDLKDDDAVPPGMPSLIS, FVDILESDLKDDDAVPPGMGSLIS is higher in protein stability index: 2.44 for the first, 2.48 for the second.

First: FVDILESDLKDDDAVPPGMNSLIS
Second: FVDILESDLKDDDAVPPGMVSLIS
The protein stability index of the first is higher: 2.76 for the first, 2.66 for the second.

First: FVDILESDLKDDDAVPPGMQSLIS
Second: FVDILESDLKDDDAVPPGMSSLIS
The protein stability index of the first is higher: 3.08 for the first, 2.43 for the second.

Going from FVDILESDLKDDDAVPPGMKSLIS to FVDILESDLKDDDAVPPGMCSLIS, the protein stability index falls from 2.74 to 2.43.

Going from FVDILESDLKDDDAVPPGMMSLIS to FVDILESDLKDDDAVPPGMTSLIS, the protein stability index rises from 2.16 to 2.51.

First: FVDILESDLKDDDAVPPGMDSLIS
Second: FVDILESDLKDDDAVPPGMYSLIS
The protein stability index of the first is higher: 2.6 for the first, 2.12 for the second.

First: FVDILESDLKDDDAVPPGMRSLIS
Second: FVDILESDLKDDDAVPPGMHSLIS
The protein stability index of the first is higher: 2.71 for the first, 2.69 for the second.

First: FVDILESDLKDDDAVPPGMWSLIS
Second: FVDILESDLKDDDAVPPGMASLIS
The protein stability index of the first is lower: 1.78 for the first, 2.77 for the second.

First: FVDILESDLKDDDAVPPGTESLIS
Second: FVDILESDLKDDDAVPPGKESLIS
The protein stability index of the first is higher: 3.09 for the first, 3.02 for the second.

Going from FVDILESDLKDDDAVPPGHESLIS to FVDILESDLKDDDAVPPGWESLIS, the protein stability index falls from 2.89 to 2.67.

First: FVDILESDLKDDDAVPPGQESLIS
Second: FVDILESDLKDDDAVPPGRESLIS
The protein stability index of the first is higher: 3.6 for the first, 2.55 for the second.

First: FVDILESDLKDDDAVPPGIESLIS
Second: FVDILESDLKDDDAVPPGSESLIS
The protein stability index of the first is lower: 2.85 for the first, 3.45 for the second.

First: FVDILESDLKDDDAVPPGVESLIS
Second: FVDILESDLKDDDAVPPGGESLIS
The protein stability index of the first is higher: 3.08 for the first, 3.06 for the second.

Compared with FVDILESDLKDDDAVPPGFESLIS, FVDILESDLKDDDAVPPGCESLIS is higher in protein stability index: 2.83 for the first, 2.91 for the second.

Going from FVDILESDLKDDDAVPPGPESLIS to FVDILESDLKDDDAVPPGDESLIS, the protein stability index falls from 3.54 to 3.48.

First: FVDILESDLKDDDAVPPGEESLIS
Second: FVDILESDLKDDDAVPPGAESLIS
The protein stability index of the first is higher: 3.37 for the first, 3.22 for the second.

Compared with FVDILESDLKDDDAVPPGLESLIS, FVDILESDLKDDDAVPPGNESLIS is higher in protein stability index: 3.08 for the first, 3.4 for the second.

First: FVDILESDLKDDDAVPPGYESLIS
Second: FVDILESDLKDDDAVPPGMEQLIS
The protein stability index of the first is lower: 2.32 for the first, 2.83 for the second.

Going from FVDILESDLKDDDAVPPGMENLIS to FVDILESDLKDDDAVPPGMEMLIS, the protein stability index rises from 2.81 to 2.96.

Compared with FVDILESDLKDDDAVPPGMEVLIS, FVDILESDLKDDDAVPPGMETLIS is lower in protein stability index: 2.93 for the first, 2.76 for the second.

First: FVDILESDLKDDDAVPPGMEILIS
Second: FVDILESDLKDDDAVPPGMEYLIS
The protein stability index of the first is higher: 3.24 for the first, 2.35 for the second.

Going from FVDILESDLKDDDAVPPGMEHLIS to FVDILESDLKDDDAVPPGMELLIS, the protein stability index rises from 2.67 to 3.43.

Compared with FVDILESDLKDDDAVPPGMEKLIS, FVDILESDLKDDDAVPPGMERLIS is higher in protein stability index: 2.68 for the first, 2.86 for the second.

First: FVDILESDLKDDDAVPPGMEFLIS
Second: FVDILESDLKDDDAVPPGMECLIS
The protein stability index of the first is lower: 2.5 for the first, 2.93 for the second.

Going from FVDILESDLKDDDAVPPGMEDLIS to FVDILESDLKDDDAVPPGMEPLIS, the protein stability index falls from 3.15 to 3.02.

Compared with FVDILESDLKDDDAVPPGMEALIS, FVDILESDLKDDDAVPPGMEGLIS is lower in protein stability index: 2.84 for the first, 2.61 for the second.

Going from FVDILESDLKDDDAVPPGMEELIS to FVDILESDLKDDDAVPPGMEWLIS, the protein stability index falls from 3.05 to 2.22.
